T1: MIS12 complex (Mis12, Pmf1, Dsn1, Nsl1), wild type, full length (Homo sapiens, UniProt Q9H081 1-205; Q6P1K2 1-205; Q9H410 1-356; Q96IY1 1-281)
T1 construct: Mis12, subunit of human MIS12C; Pmf1, subunit of human MIS12C; Dsn1, subunit of human MIS12C; Nsl1, subunit of human MIS12C; The DS tag on Pmf1 is TEV cleavable; a cleavage is not described; also called MIS12C (WT); wild-type MIS12C; source: High-5 insect cells (baculovirus), purified (Strep-Tactin, Resource S, Superdex 200); copies: + + +
T1 sequence (looked up) 1: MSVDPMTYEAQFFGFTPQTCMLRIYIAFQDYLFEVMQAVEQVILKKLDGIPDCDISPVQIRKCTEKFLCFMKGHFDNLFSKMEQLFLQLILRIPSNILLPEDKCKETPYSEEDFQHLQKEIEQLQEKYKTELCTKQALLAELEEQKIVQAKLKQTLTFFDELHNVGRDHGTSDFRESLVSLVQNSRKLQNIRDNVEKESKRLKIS
T1 sequence (looked up) 2: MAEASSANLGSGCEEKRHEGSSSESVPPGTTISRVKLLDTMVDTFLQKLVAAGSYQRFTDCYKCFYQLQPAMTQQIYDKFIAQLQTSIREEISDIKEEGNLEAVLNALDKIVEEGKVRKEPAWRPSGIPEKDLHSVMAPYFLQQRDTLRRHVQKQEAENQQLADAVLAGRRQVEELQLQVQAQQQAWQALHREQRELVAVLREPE
T1 sequence (looked up) 3: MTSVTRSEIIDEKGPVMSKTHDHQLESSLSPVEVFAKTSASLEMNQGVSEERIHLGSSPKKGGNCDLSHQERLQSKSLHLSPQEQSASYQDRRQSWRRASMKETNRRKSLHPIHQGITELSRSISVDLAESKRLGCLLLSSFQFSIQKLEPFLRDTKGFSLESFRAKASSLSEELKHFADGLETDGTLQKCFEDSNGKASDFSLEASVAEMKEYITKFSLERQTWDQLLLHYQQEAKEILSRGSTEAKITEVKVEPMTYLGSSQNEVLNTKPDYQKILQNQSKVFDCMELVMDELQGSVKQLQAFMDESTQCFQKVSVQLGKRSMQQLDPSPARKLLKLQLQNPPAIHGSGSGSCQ
T1 sequence (looked up) 4: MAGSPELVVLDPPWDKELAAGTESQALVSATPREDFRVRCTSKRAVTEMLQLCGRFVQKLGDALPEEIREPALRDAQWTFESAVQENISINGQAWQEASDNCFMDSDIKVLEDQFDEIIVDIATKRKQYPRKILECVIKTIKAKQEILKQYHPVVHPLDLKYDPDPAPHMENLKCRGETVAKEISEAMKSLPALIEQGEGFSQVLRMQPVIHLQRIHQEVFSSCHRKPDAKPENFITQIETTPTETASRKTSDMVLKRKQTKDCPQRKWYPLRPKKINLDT

T2: MIS12 complex with Dsn1 residues 6–113 deleted (Homo sapiens, UniProt Q9H081 1-205; Q6P1K2 1-205; Q9H410 1-356; Q96IY1 1-281, 6–113 residues deleted)
T2 construct: Mis12, subunit of human MIS12C; Pmf1, subunit of human MIS12C; Nsl1, subunit of human MIS12C; also called MIS12C^Dsn1ΔN; MIS12C^ΔN-Dsn1; source: High-5 insect cells (baculovirus), purified (Strep-Tactin, Resource S, Superdex 200); copies: + + +
T2 sequence (looked up) 1: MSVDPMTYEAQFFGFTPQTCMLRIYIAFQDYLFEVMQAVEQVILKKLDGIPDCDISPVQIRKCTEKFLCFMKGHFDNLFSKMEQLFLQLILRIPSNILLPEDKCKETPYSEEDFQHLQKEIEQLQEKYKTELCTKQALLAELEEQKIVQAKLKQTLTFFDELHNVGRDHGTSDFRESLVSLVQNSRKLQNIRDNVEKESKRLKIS
T2 sequence (looked up) 2: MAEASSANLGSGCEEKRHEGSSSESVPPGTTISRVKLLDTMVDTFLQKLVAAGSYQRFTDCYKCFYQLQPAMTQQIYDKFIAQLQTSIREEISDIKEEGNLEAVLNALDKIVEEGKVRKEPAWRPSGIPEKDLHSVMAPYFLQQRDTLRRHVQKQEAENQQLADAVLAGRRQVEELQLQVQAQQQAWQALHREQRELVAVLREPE
T2 sequence (looked up) 3: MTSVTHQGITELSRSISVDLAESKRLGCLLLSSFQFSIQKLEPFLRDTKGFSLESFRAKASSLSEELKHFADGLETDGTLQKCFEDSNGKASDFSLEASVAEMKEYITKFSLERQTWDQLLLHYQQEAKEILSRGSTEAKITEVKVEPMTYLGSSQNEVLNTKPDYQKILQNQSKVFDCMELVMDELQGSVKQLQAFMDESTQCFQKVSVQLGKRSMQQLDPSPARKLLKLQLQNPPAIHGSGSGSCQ
T2 sequence (looked up) 4: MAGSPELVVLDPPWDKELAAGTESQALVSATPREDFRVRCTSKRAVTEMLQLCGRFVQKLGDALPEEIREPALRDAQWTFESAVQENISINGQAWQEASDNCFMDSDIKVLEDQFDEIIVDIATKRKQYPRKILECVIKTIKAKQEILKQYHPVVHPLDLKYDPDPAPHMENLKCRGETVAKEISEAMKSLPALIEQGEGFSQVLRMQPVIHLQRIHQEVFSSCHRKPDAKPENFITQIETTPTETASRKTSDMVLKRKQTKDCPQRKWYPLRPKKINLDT

T3: MIS12 complex (Mis12, Pmf1, Dsn1, Nsl1), wild type, full length (Homo sapiens, UniProt Q9H081 1-205; Q6P1K2 1-205; Q9H410 1-356; Q96IY1 1-281)
T3 chain 1: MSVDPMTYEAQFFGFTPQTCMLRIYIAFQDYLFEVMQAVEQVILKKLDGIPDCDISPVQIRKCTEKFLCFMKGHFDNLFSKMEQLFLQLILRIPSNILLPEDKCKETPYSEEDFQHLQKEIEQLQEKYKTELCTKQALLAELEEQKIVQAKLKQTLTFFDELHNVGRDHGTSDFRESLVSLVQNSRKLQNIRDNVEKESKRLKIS
T3 chain 2: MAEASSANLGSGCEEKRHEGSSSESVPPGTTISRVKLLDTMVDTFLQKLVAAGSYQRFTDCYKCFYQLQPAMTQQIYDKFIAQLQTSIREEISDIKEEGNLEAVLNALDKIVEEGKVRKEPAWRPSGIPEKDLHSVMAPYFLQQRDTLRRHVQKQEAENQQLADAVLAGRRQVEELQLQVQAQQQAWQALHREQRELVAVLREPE
T3 chain 3: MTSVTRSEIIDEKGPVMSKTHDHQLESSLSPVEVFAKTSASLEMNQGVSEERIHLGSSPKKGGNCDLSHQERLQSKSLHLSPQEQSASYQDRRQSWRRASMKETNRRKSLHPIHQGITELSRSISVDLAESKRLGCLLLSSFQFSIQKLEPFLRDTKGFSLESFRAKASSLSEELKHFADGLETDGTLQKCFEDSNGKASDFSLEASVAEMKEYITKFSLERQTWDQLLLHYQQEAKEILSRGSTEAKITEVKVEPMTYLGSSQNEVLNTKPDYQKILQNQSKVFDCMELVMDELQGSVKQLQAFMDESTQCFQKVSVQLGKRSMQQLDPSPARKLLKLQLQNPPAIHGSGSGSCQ
T3 chain 4: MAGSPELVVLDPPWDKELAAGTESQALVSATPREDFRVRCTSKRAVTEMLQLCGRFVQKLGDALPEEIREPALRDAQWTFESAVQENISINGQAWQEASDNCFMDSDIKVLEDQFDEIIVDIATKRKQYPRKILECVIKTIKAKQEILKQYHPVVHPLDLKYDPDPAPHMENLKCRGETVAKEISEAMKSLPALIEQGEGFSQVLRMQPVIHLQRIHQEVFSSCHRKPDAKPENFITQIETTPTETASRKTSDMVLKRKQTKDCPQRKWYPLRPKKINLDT

T4: Dsn1 (Homo sapiens, UniProt Q9H410 1-356)
T4 construct: Dsn1, subunit of human MIS12C; Subunit within the KMN network cryo-EM sample; residues N-terminal to Arg92 are disordered; source: High-5 insect cells, expressed and purified as part of MIS12C
T4 sequence (looked up): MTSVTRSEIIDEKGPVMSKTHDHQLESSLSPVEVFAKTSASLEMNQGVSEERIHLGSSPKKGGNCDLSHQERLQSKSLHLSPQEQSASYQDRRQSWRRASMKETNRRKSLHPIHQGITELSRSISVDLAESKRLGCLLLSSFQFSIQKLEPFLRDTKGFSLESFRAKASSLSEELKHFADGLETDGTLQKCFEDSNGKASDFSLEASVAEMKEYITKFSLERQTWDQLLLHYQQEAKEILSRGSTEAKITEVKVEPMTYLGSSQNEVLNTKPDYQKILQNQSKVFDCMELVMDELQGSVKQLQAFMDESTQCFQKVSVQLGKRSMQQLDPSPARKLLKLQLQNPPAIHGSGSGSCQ

T5: Knl1 residues 1870–2342 (human, UniProt Q8NG31 1870-2342)
T5 construct: Knl1, human, 2,342-residue protein, residues 1870-2342; coordinates traced R2097–H2342; Subunit within the KMN network cryo-EM sample; also called extended version of the Knl1 C terminus; source: High-5 insect cells, expressed and purified as part of KNL1C
T5 sequence (looked up): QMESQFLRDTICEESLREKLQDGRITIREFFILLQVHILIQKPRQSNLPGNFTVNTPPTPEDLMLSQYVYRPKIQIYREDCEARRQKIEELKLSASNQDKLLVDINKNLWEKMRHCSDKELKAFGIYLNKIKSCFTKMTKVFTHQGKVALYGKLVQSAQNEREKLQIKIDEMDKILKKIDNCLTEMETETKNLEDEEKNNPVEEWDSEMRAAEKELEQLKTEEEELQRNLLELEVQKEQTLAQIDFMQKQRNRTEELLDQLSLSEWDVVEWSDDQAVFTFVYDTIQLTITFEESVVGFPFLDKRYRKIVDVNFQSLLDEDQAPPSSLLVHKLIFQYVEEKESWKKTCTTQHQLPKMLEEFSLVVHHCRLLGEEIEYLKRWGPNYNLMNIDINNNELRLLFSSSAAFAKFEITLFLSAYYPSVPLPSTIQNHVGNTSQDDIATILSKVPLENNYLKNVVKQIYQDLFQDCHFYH

T6: Mis12 (Homo sapiens, UniProt Q9H081 1-205)
T6 construct: Mis12, subunit of human MIS12C; Subunit within the KMN network cryo-EM sample; source: High-5 insect cells, expressed and purified as part of MIS12C
T6 sequence (looked up): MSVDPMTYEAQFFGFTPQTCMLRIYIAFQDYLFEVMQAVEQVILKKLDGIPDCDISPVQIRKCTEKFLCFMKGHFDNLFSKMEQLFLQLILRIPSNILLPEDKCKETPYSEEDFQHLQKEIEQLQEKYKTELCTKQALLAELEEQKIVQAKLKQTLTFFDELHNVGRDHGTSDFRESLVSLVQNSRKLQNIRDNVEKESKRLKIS


Assays:
[1] = biological target: T1, MIS12 complex (Mis12, Pmf1, Dsn1, …); assay: ITC; peptide in the syringe titrated into the MIS12C variant in the cell; 20 °C; 20 mM HEPES pH 7.5, 100 mM NaCl, 1 mM TCEP; single-site binding model; duplicate or triplicate; conditions: both partners purified
[2] = biological target: T2, MIS12 complex with Dsn1 residues 6–113 …; assay: as above; conditions: both partners purified
[3] = biological target: MIS12 complex with Dsn1 residues 6–113 deleted (Homo sapiens, UniProt Q9H081 1-205; Q6P1K2 1-205; Q9H410 1-356; Q96IY1 1-281, 6–113 residues deleted); assay: ITC
[4] = biological target: T3, MIS12 complex (Mis12, Pmf1, Dsn1, …); assay: ITC
Dsn1 = biological target: T4, Dsn1; assay: cryo-EM structure; NDC80C, MIS12C and KNL1C mixed 1:1:1 and run on Superose 6 in 20 mM HEPES pH 8.0, 80 mM NaCl, 1 mM MgCl2, 1 mM TCEP; about 1 mg/ml on UltrAuFoil grids; 3.0 Å (MIS12C heads 3.8 Å); conditions: both partners purified
Knl1 residues 1870–2342 = biological target: T5, Knl1 residues 1870–2342; assay: as above; conditions: both partners purified
Mis12 = biological target: T6, Mis12; assay: as above; conditions: both partners purified

binding result [1] | fold increase in binding against wild-type MIS12C [2] | Kd [3] | Kd [4] | binding result (Dsn1) | binding result (Knl1 residues 1870–2342) | binding result (Mis12) | Binder
binds | 44 fold | 4.89 µM | 214 µM |  |  |  | Ac-RRQSWRRASMKETNRRKSLHPIAW-NH2 (Ala-Trp added for determination of concentration by absorption at 280 nm; source: synthetic peptide (Cambridge Research Biochemicals)) [Dsn1^92–113 auto-inhibitory peptide, wild type]
 |  |  |  | binds | binds | binds | Pmf1 (natural protein, Homo sapiens, UniProt Q6P1K2 1-205, looked up, Pmf1, subunit of human MIS12C; Subunit within the KMN network cryo-EM sample; source: High-5 insect cells, expressed and purified as part of MIS12C) MAEASSANLGSGCEEKRHEGSSSESVPPGTTISRVKLLDTMVDTFLQKLVAAGSYQRFTDCYKCFYQLQPAMTQQIYDKFIAQLQTSIREEISDIKEEGNLEAVLNALDKIVEEGKVRKEPAWRPSGIPEKDLHSVMAPYFLQQRDTLRRHVQKQEAENQQLADAVLAGRRQVEELQLQVQAQQQAWQALHREQRELVAVLREPE
